For 53 sequences, protein stability index results are on record in the supplement of paper PMC10567573.

± gives the standard deviation.

The data set can be described thus: protein stability index of a GFP-peptide fusion (GPS, HEK-293T) (PSI 1-6); higher = more stable.
The mark [1] stands for this setting: treatment: DMSO, c terminus: a fixed tail appended.
The mark [2] stands for this setting: treatment: MLN4924 1 uM, 8 h, c terminus: a fixed tail appended.
[3] abbreviates: treatment: DMSO, c terminus: native.
Setting [4] is: treatment: MLN4924 1 uM, 8 h, c terminus: native.
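Note: 24-mer peptide tiles fused after GFP, lentivirally expressed, FACS-sorted into six equal bins by GFP/DsRed ratio, decoded by Illumina sequencing, PSI is the read-weighted mean bin number.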

Consider GYPVSSAFAFQNTFPHSISAKNTS [SASS6], for which the protein stability index under setting [1] is 3.19 ± 0.43 and the protein stability index under setting [2] amounted to 3.37 ± 0.21. Taken in the same sequence, the figures for HEDLLTRIGEATKPDGTVEQIGHI [NET1] were 4.95 ± 0.13 and 4.93 ± 0.17.

For HELTAKYLNYYQGMLDVADESLTD [P3H4], the protein stability index reads like this: under setting [1], 4.01 ± 0.3; under setting [2], 3.89 ± 0.48. With HGLWDSLVYDVEVKSHLLDYVMTT [TRIP13], the protein stability index reads like this: under setting [1], 2.28 ± 0.32; under setting [2], 2.2 ± 0.34. As to HGPISEVLLIKDRTSKSRGFAFIT [RBMY1A1], the protein stability index came to 2.83 ± 0.36 under setting [1] and 2.66 ± 0.91 under setting [2]. For HILAKNYFSQVPVLASFILDDGEI [IQUB], the protein stability index by setting is: under setting [1], 2.2 ± 0.51; under setting [2], 1.96 ± 0.42.

Regarding HKESKMTIFEKENFIGRQWEISDD [CRYBA1], the protein stability index under setting [1] is 4.13 ± 0.4 and the protein stability index under setting [2] was determined as 4.07 ± 0.3. Taken in the same sequence, the figures for HLNAIRGLPGSFIKEVQKGGPADL [PDZK1] were 3.56 ± 0.34 and 3.99 ± 0.19. As for HNLVVACEIQVRTLASAGGPDNLV [ADD1], the protein stability index amounted to 2.51 ± 0.51 under setting [1] and 2.38 ± 0.52 under setting [2]. For the sequence HNRYTENSLRGVILDIHFLSQADF [FUT8], the protein stability index by setting is: under setting [1], 2.55 ± 0.67; under setting [2], 2.41 ± 0.43. Taken in the same sequence, the figures for HNTTEAPGPHSAKQDSYEQGDSSQ [ZC2HC1C] were 5.45 ± 0.29 and 5.46 ± 0.32. The matching figures for HPGFKDNVYRKRRKYFADLAMNYK [TPH1]: 2.61 ± 0.23 and 3.01 ± 0.48. The matching figures for HRLMTDARRRVCHTEDFQKEEGTV [CPXM2]: 4.76 ± 0.26 and 4.8 ± 0.24. With HRRDGKWQIVHFHRSGAPSVLPH [CAMK2A], the protein stability index by setting is: under setting [3], 3.2 ± 0.21; under setting [4], 3.34 ± 0.24. As to HSDMAAIVKAMASPESGLEVRDRM [DVL3], the protein stability index was 3.81 ± 0.23 under setting [1] and 3.81 ± 0.03 under setting [2]. The matching figures for HSRKTVLIKTIETRNGEVVTESQK [PRPH]: 4.71 ± 0.27 and 4.8 ± 0.32.

Sequence HYFPVMKKCCIPETRRRMEMAFNT [NLN] came in with a protein stability index under setting [1] of 2.35 ± 0.43 and a protein stability index under setting [2] of 1.84 ± 0.27. The matching figures for IAFDGVVGSGGRRDSTARRPRPQG [RTN2]: 4.29 ± 0.17 and 4.26 ± 0.22. For IALDLTPVIEELTNAGFLQTESEL [FAN1], the protein stability index runs as follows: under setting [1], 2.46 ± 0.26; under setting [2], 2.57 ± 0.37. Taken in the same sequence, the figures for IDFSPYLEPLGAPQAPAPATATDT [CEBPB] were 4.42 ± 0.31 and 4.35 ± 0.37. As for IDNSSEIEDEDQILENSSQKENVF [FAN1], the protein stability index is, setting by setting: under setting [1], 5.39 ± 0.28; under setting [2], 5.2 ± 0.56. Taken in the same sequence, the figures for IEREVNILREIRHPNIITLHDIFE [DAPK3] were 2.69 ± 0.17 and 2.71 ± 0.42. The matching figures for IESLNEELAYMKKNHEEEMKEFSN [KRT13]: 4.88 ± 0.38 and 5.06 ± 0.3. For IFEGNSEKEIPVLNELPVPMVARY [CPXM2], the protein stability index was 3.55 ± 0.16 under setting [1] and 3.37 ± 0.33 under setting [2]. As to IFRNLCQMQEDNSSFSLLLDLLSE [INTS3], the protein stability index under setting [1] was 2.61 ± 0.28 and the protein stability index under setting [2] worked out at 2.51 ± 0.37. The matching figures for IGLTKAGMEGDWSWVDDTPFNKVQ [CD207]: 2.97 ± 0.37 and 3.04 ± 0.46.

For the sequence ILLLDGAAWLTLWVFGTSFLPFLL [FADS1], the protein stability index reads like this: under setting [1], 2.91 ± 0.062; under setting [2], 3.17 ± 0.46. Take IMTQLRQEGWIHHLARHAVACFLT [CRY1]: the protein stability index by setting is: under setting [1], 3.02 ± 0.38; under setting [2], 2.84 ± 0.61.

With INDNAPTFQSSVLRVGIPENAPIG [PCDHGC5], the protein stability index by setting is: under setting [1], 3.99 ± 0.066; under setting [2], 4.18 ± 0.19. As for INLPVEEFNELLSKYQLSEAQLSL [NFE2L1], the protein stability index is, setting by setting: under setting [1], 2.47 ± 0.44; under setting [2], 2.51 ± 0.21. Turning to IPAVSISYVVYENLKITLGVQSR [SLC25A25], the protein stability index is, setting by setting: under setting [3], 3.19 ± 0.32; under setting [4], 3.18 ± 0.36. In the case of IPVLMALSWFILHARYRVIHFIAV [SLC35F2], the protein stability index reads like this: under setting [1], 3.09 ± 0.43; under setting [2], 3.25 ± 0.093. For the sequence IPYWVAYYLALLLSLLVMVISPVI [NSDHL], the protein stability index reads like this: under setting [1], 2.23 ± 0.31; under setting [2], 2.28 ± 0.38. In the case of IQHRRTHTDSKYEHAIAEAQKNMY [ZNF396], the protein stability index by setting is: under setting [1], 3.78 ± 0.27; under setting [2], 3.96 ± 0.21. Taken in the same sequence, the figures for IQMVNESLGYVRSQFLKLKTSVEK [CD207] were 3.34 ± 0.21 and 3.29 ± 0.13. In turn, IRLVCSRGNRLKTTSWGLLSLGAL [SCNN1D] returned a protein stability index under setting [1] of 3.2 ± 0.45 and a protein stability index under setting [2] of 3.07 ± 0.54. The matching figures for ISFDRYYKIVKPLWTSFIQSVSYS [P2RY14]: 3.63 ± 0.89 and 2.08 ± 0.7.

With ISGALLQIKTLLALSCHEQEMVVS [SLC2A12], the protein stability index is 2.91 ± 0.5 under setting [1] and 2.42 ± 0.48 under setting [2]. As to ISHQGDYAVLAAEPELQVGIDIMK [AASDHPPT], the protein stability index is, setting by setting: under setting [1], 3.42 ± 0.21; under setting [2], 3.52 ± 0.3. The matching figures for ISNGDFESYTKMCDPGMTAFEPEA [CAMK2A]: 4.48 ± 0.18 and 4.66 ± 0.25. The matching figures for ISVNGDVITIKSESTFKNTEISFI [FABP4]: 2.75 ± 1.1 and 2.11 ± 0.16. Taken in the same sequence, the figures for IVGWRCRVGQWVRMENVTVLGEDV [GMPPB] were 2.39 ± 0.61 and 2.15 ± 0.18.

For IVHVEKEEVPEGMEEAAVASVVLP [BCL2L13], the protein stability index reads like this: under setting [1], 5.11 ± 0.16; under setting [2], 5.07 ± 0.19.

IVMCVQIKCFHEIITIGYNVYHSY [CDS2]: the protein stability index reads like this: under setting [1], 3.32 ± 0.42; under setting [2], 3.36 ± 0.66. For the sequence IVSILPYFITLGTDLAQQQGGGNG [KCNA4], the protein stability index by setting is: under setting [1], 2.92 ± 0.36; under setting [2], 2.54 ± 0.23. The matching figures for IVVATLPIPVVFVLRHFHLLSDGS [SLC6A17]: 2.92 ± 0.56 and 3.21 ± 0.24. Taken in the same sequence, the figures for IVVSLQSKLASMSNDFKSVLEVRT [STX5] were 2.7 ± 0.65 and 2.64 ± 0.72. On to IWAQGWVPAAGGPAPKRGYSSEMK [AUH], for which the protein stability index under setting [2] came out at 2.9 ± 0.29. Consider KAGFTASPFTNLLNGSSQPTTRNY [CDC14A], for which the protein stability index is, setting by setting: under setting [1], 3.38 ± 0.19; under setting [2], 3.39 ± 0.18. The matching figures for KAKRRNQEMQQKLVELSAENEKLH [CEBPD]: 4.97 ± 0.67 and 4.8 ± 0.097.

As to KALQMLLSQPVTYQAFRECTLETT [BCL2L13], the protein stability index runs as follows: under setting [1], 3.24 ± 0.35; under setting [2], 2.79 ± 0.42. Taken in the same sequence, the figures for KASLWQFLSSEKQICGTHRQTKKM [TRIM43] were 2.63 ± 0.27 and 2.71 ± 0.24.

With KATNVVMNYSEIESKVREATNDDP [CLINT1], the protein stability index under setting [1] turned out to be 5.35 ± 0.27 and the protein stability index under setting [2] was determined as 5.34 ± 0.15.
